Measurements reported in the supplement of paper PMC7877785.
± gives the uncertainty stated by the source.

Assay: self-splicing fitness, log relative to wild type (ln ratio); higher = more splicing; Tetrahymena group I intron in knt gene, E. coli kanamycin selection, DiMSum; sequences stand for … in CUCUCU…GGAGGGAAAAGUUAUCAGGCAUGCACCUGGUAGCUAGUCUUUAAACCAAUAGAUUGCAUCGGUUUAAAAGGCAAGACCGUCAAAUUGCGGGAAAGGGGUCAACAGCCGUUCAGUACCAAGUCUCAGGGGAAACUUUGAGAUGGCCUUGCAAAGGGUAUGGUAAUAAGCUGACGGACAUGGUCCUAACCACGCAGCCAAGUCCUAAGUCAACAGAUCUUCUGUUGAUAUGGAUGCAGUUCACAGACUAAAUGUCGGUCGGGGAAGAUGUAUUCUUCUCAUAAGAUAUAGUCGGACCUCUCCUUAAUGGGAGCUAGCGGAUGAAGUGAUGCAACACUGGAGCCGCUGGGAACUAAUUUGUAUGCGAAAGUAUAUUGAUUAGUUUUGGAGUACUCGUGGUCG
Summary of the method: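 The eight P1ex-region nucleotides of an intron in the knt kanamycin-resistance gene on pET-22b(+) were all randomised and the library put into E. coli BL21(DE3). Six replicate transformations were grown overnight at 37°C or 30°C on LB agar with or without 25 μg/mL kanamycin, together with 100 μg/mL carbenicillin, 50 μM IPTG and 0.2% rhamnose. Colonies were pooled and amplicon-sequenced on an Illumina HiSeq 2500. Fitness from DiMSum is the error-weighted combination of wild-type-normalised replicate fold changes, kanamycin over none.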

Sequence	self-splicing fitness (ln) (30 °C)	self-splicing fitness (ln) (37 °C)
UGUGAGCAAUAUUACGCCCU	-1.54 ± 0.44	-0.113 ± 0.36
CAAGAGCAAUAUUACGCGCU	-3.72 ± 0.4	-2.34 ± 0.33
ACGCAGCAAUAUUACGUGUU	-4.19 ± 0.1	-2.85 ± 0.14
CUAUAGCAAUAUUACGGUAC	-3.68 ± 0.28	-1.51 ± 0.25
UCUCAGCAAUAUUACGUGGG	-3.43 ± 0.25	-2.48 ± 0.21
CGCCAGCAAUAUUACGCUCG	-2.21 ± 0.13	-0.347 ± 0.14
GGUCAGCAAUAUUACGAGAG	-3.37 ± 0.42	-1.16 ± 0.25
CAAAAGCAAUAUUACGCGAU	-4 ± 0.3	-1.78 ± 0.23
AUACAGCAAUAUUACGAACC	-2.11 ± 0.15	-0.458 ± 0.16
AGACAGCAAUAUUACGCGGA	-2.87 ± 0.14	-1.58 ± 0.12
GUUCAGCAAUAUUACGUGGG	-2.07 ± 0.13	-1.92 ± 0.15
CUUCAGCAAUAUUACGACAG	-0.695 ± 0.069	-0.281 ± 0.093
CUAAAGCAAUAUUACGUACG	0.59 ± 0.095	0.0866 ± 0.099
ACUGAGCAAUAUUACGGCUC	–	-1.73 ± 0.48
GGUUAGCAAUAUUACGUCAU	-1.03 ± 0.21	0.277 ± 0.21
ACGAAGCAAUAUUACGAGCU	-1.56 ± 0.12	-0.76 ± 0.11
AUUUAGCAAUAUUACGAGAG	–	-2.7 ± 0.3
CAACAGCAAUAUUACGGGCU	-3.65 ± 0.13	-2.66 ± 0.14
AUCCAGCAAUAUUACGGAUU	-3.25 ± 0.12	-2.83 ± 0.21
ACCAAGCAAUAUUACGUCGA	-2.16 ± 0.12	-1.83 ± 0.1
CAACAGCAAUAUUACGCAGC	-4.4 ± 0.25	-2.75 ± 0.29
UAAAAGCAAUAUUACGGGAA	-2.63 ± 0.2	-1.18 ± 0.12
UUACAGCAAUAUUACGGUUG	-0.8 ± 0.054	-0.338 ± 0.07
CCUGAGCAAUAUUACGAAAG	-2.39 ± 0.22	-2.08 ± 0.23

Sequence	self-splicing fitness (ln) (30 °C)	self-splicing fitness (ln) (37 °C)
GAGCAGCAAUAUUACGAGAC	-2.97 ± 0.3	-0.985 ± 0.2
CACGAGCAAUAUUACGUUGC	-3.91 ± 0.24	-2.14 ± 0.21
GGCAAGCAAUAUUACGUGAC	-1.6 ± 0.12	-0.479 ± 0.14
GAGCAGCAAUAUUACGUUGA	-2.38 ± 0.17	-1.32 ± 0.13
CAUGAGCAAUAUUACGUUUU	-3.66 ± 0.21	-2.86 ± 0.24
GAUCAGCAAUAUUACGGUUG	-1.02 ± 0.053	-0.343 ± 0.073
GCACAGCAAUAUUACGGAGG	-2 ± 0.099	-0.502 ± 0.11
AUUAAGCAAUAUUACGCGGC	–	-2.33 ± 0.31
GGUGAGCAAUAUUACGGAUA	-2.24 ± 0.18	-1.88 ± 0.22
AACGAGCAAUAUUACGUGAA	-3.48 ± 0.19	-3.65 ± 0.24
UCCCAGCAAUAUUACGAUCG	-3.52 ± 0.3	-2.79 ± 0.16
GGACAGCAAUAUUACGCUAA	-0.66 ± 0.1	-0.339 ± 0.12
GCAGAGCAAUAUUACGCGUC	-3.88 ± 0.2	-2.03 ± 0.14
UGCCAGCAAUAUUACGUUGA	-2.21 ± 0.074	-1.26 ± 0.082
AAUAAGCAAUAUUACGGGCC	-2.8 ± 0.39	-2.21 ± 0.31
UUUCAGCAAUAUUACGUGAG	-0.129 ± 0.054	-0.623 ± 0.07
GUGCAGCAAUAUUACGGUCC	-0.146 ± 0.15	0.0655 ± 0.22
CGUCAGCAAUAUUACGCGUA	-1.93 ± 0.18	-0.985 ± 0.12
GGAUAGCAAUAUUACGUUCU	-1.88 ± 0.15	-2.27 ± 0.24
GUCGAGCAAUAUUACGAUCG	-3.65 ± 0.23	-1.38 ± 0.18
GAGAAGCAAUAUUACGUAAA	-2.16 ± 0.14	-0.647 ± 0.17
CUCUAGCAAUAUUACGAUCC	-2.43 ± 0.31	-2.11 ± 0.3
CGACAGCAAUAUUACGAGUU	-2.98 ± 0.1	-3.25 ± 0.15
GUUUAGCAAUAUUACGGAUG	-3.5 ± 0.3	-1.57 ± 0.22

Sequence	self-splicing fitness (ln) (30 °C)	self-splicing fitness (ln) (37 °C)
GGCAAGCAAUAUUACGUGUA	-0.7 ± 0.049	-0.0721 ± 0.057
UUUUAGCAAUAUUACGCAUC	-3.19 ± 0.31	-2.15 ± 0.23
ACAUAGCAAUAUUACGCAGG	-2.73 ± 0.15	-2.23 ± 0.17
GUCCAGCAAUAUUACGACUG	-4.63 ± 0.39	-1.86 ± 0.22
ACGCAGCAAUAUUACGUAGG	-2.12 ± 0.096	-2.86 ± 0.13
ACUGAGCAAUAUUACGUUCC	-3.65 ± 0.35	-2.52 ± 0.24
UCACAGCAAUAUUACGGGCG	-0.948 ± 0.094	-1.07 ± 0.093
AUAGAGCAAUAUUACGGUCG	-1.65 ± 0.18	-1.12 ± 0.23
UAGUAGCAAUAUUACGAGUC	-4.06 ± 0.33	-2.03 ± 0.23
CUAAAGCAAUAUUACGUAUU	-3.61 ± 0.19	-2.17 ± 0.24
GAGCAGCAAUAUUACGUGUA	-2 ± 0.12	-0.876 ± 0.094
CCAGAGCAAUAUUACGCUUU	-3.36 ± 0.27	-1.71 ± 0.17
ACCUAGCAAUAUUACGACGC	-0.289 ± 0.11	0.164 ± 0.12
ACUAAGCAAUAUUACGGAUA	-2.38 ± 0.16	-2.54 ± 0.2
AUGUAGCAAUAUUACGAAAA	-0.961 ± 0.34	-0.547 ± 0.31
UUAGAGCAAUAUUACGUUGA	-2.03 ± 0.1	-0.538 ± 0.12
UUGGAGCAAUAUUACGCUUU	-2.75 ± 0.23	-2.3 ± 0.5
UUUAAGCAAUAUUACGGAUG	-1.56 ± 0.1	-0.852 ± 0.13
AGGAAGCAAUAUUACGAGGC	-3.01 ± 0.3	-2.31 ± 0.34
AUACAGCAAUAUUACGUACU	-0.171 ± 0.059	0.38 ± 0.083
AACAAGCAAUAUUACGCAAC	-3.89 ± 0.22	-1.63 ± 0.12
CUAGAGCAAUAUUACGCUUA	-3.65 ± 0.3	-2.77 ± 0.26
CCGUAGCAAUAUUACGCCUC	-1.88 ± 0.44	-1.82 ± 0.35
CCCCAGCAAUAUUACGAUAU	-3.52 ± 0.2	-1.58 ± 0.21

Sequence	self-splicing fitness (ln) (30 °C)	self-splicing fitness (ln) (37 °C)
AAAGAGCAAUAUUACGCUAG	-2.87 ± 0.17	-2.42 ± 0.27
AAAGAGCAAUAUUACGAUCC	–	-1.6 ± 0.32
CAGAAGCAAUAUUACGGACC	-3.56 ± 0.48	-2.5 ± 0.46
UCGCAGCAAUAUUACGAGUC	–	-2.6 ± 0.38
CGGAAGCAAUAUUACGAGCG	-1.14 ± 0.098	-1.11 ± 0.095
GGAUAGCAAUAUUACGUCGA	-0.726 ± 0.1	-0.0349 ± 0.098
UCUAAGCAAUAUUACGGGUC	-2.67 ± 0.26	-1.16 ± 0.37
CUAAAGCAAUAUUACGUCAU	-4.85 ± 0.31	-2.78 ± 0.23
CUCAAGCAAUAUUACGGUAU	-3.61 ± 0.17	-2.08 ± 0.17
CUCUAGCAAUAUUACGCUAU	-3.8 ± 0.39	-2.79 ± 0.3
CACUAGCAAUAUUACGCCCA	-1.1 ± 0.16	-1.35 ± 0.27
CUAAAGCAAUAUUACGCGGU	-1.44 ± 0.097	-1.2 ± 0.094
AGUUAGCAAUAUUACGACCU	-0.34 ± 0.09	-0.469 ± 0.097
UAUGAGCAAUAUUACGUUAA	-4.12 ± 0.31	-2.59 ± 0.28
CGUGAGCAAUAUUACGUAGG	-1.12 ± 0.089	-1.39 ± 0.12
UCUCAGCAAUAUUACGAAGU	-2.33 ± 0.26	-0.109 ± 0.16
CGGCAGCAAUAUUACGGUCG	-3.51 ± 0.27	-2.94 ± 0.33
CAAAAGCAAUAUUACGUCCC	-2.65 ± 0.26	-2.26 ± 0.42
UUUCAGCAAUAUUACGCCUU	-1.58 ± 0.2	-0.883 ± 0.2
CAAAAGCAAUAUUACGGCUC	-1.56 ± 0.12	0.0316 ± 0.14
AGUAAGCAAUAUUACGAAGA	-2.88 ± 0.28	-2.82 ± 0.35
GCUCAGCAAUAUUACGCUAA	-2.11 ± 0.11	-0.785 ± 0.11
UUCUAGCAAUAUUACGCAUA	-0.852 ± 0.12	-0.774 ± 0.14
ACAGAGCAAUAUUACGUCUA	-3.22 ± 0.33	-1.73 ± 0.29
